Source: patent US20060142192A1 (ZymoGenetics, published 2006)

How the values were obtained:
Assay in all cases: flow cytometry, biotinylated ligand + streptavidin-PE on stably transfected BHK cells
[1] = target: T1, human IL-17A (biotinylated) (human, UniProt Q16552 24-155, biotin label (sites not given))
T1 sequence (looked up): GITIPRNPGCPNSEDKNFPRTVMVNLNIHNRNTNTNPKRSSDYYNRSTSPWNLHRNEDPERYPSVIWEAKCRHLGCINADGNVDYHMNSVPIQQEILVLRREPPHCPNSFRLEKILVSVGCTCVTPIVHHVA

[2] = target: T2, human IL-17B (biotinylated) (human, UniProt Q9UHF5 21-180, biotin label (sites not given))
T2 sequence (looked up): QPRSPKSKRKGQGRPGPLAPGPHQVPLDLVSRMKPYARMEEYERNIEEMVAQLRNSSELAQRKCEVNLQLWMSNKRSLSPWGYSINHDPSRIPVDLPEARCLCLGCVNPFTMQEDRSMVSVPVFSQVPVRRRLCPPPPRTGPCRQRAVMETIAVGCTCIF

[3] = target: T3, human IL-17D (biotinylated) (human, UniProt Q8TAD2 18-202, limits assumed, biotin label (sites not given))
T3 sequence (looked up): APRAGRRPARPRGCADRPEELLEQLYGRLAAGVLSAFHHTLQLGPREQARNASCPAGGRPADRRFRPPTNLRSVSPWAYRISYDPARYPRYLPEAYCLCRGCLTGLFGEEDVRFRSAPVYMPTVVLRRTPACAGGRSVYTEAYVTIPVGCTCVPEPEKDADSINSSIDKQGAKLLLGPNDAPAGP

[4] = target: T4, human IL-17F (biotinylated) (human, UniProt Q96PD4 31-163, biotin label (sites not given))
T4 sequence (looked up): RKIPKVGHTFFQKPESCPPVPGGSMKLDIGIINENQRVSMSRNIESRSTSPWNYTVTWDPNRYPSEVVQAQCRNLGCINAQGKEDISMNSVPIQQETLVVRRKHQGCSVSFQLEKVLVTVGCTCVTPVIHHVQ

binding result [1]: no binding
binding result [2]: no binding
binding result [3]: no binding
binding result [4]: no binding
B1: human ZcytoR21x3 (receptor)
chain: AGIGFRHLPHWNTRCPLASHTVFNGASSTSWCRNPKSLPHSSSIGDTRCQHLLRGSCCLVVTCLRRAITFPSPPQTSPTRDFALKGPNLRIQRHGKVFPDWTHKGPEFSFDLLPEARAIRVTISSGPEVSVRLCHQWALECEELSSPYDVQKIVSGGHTVELPYEFLLPCLCIEASYLQEDTVRRKKCPFQSWPEAYGSDFWKSVHFTDYSQHTQMVMALTLRCPLKLEAALCQRHDWHTLCKDLPNATARESDGWYVLEKVDLHPQLCFKFSFGNSSHVECPHQTGITEARDWPSHIQVSCSPGVPIREPQTSNCLWFVRNEATQQEARGSSPVSLDLIIPFLRPGCCVLVWRSDVQFAWKHLLCPDVSYRHLGLLILALLALLTLLGVVLALTCRRPQSGPGPARPVLLLHAADSEAQRRLVGALAELLRAALGGGRDVIVDLWEGRHVARVGPLPWLWAARTRVAREQGTVLLLWSGADLRPVSGPDPRAAPLLALLHAAPRPLLLLAYFSRLCAKGDIPPPLRALPRYRLLRDLPRLLRALDARPFAEATSWGRLGARQRRQSRLELCSRLEREAARLADLG
notes: also called hcytor21x3
